Measured values: the domain aggregation screens of Martell et al. (2025)

Assay: soluble fraction after stress (log2 fold change); higher = more stays soluble; pooled small domains, quantitative proteomics
Settings: stress: 75 degC
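Note: 20 min heating vs room temperature control held 20 min.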

## HMSEYEYALHEFGITKKQSQRIFDRLSIADLEERINAIQTTLKQRSDIDNPAAYAWTVLNAE
  soluble fraction (log2): -0.0603

## HMSEYLDIHMAMEKLNRKEQLFVHLRFYEGLTQSEIAQRLFTSQVQISRLEKSVLEKMRQILSK
  soluble fraction (log2): -2.2

## HMSEYTRGELVSSLEAGEVAAVSIRPNRETPTGEAQIVLSDGQHRVLYVTDVREIEELVSSYGLNPQVEK
  soluble fraction (log2): 0.196

## HMSFDNIKVGYISETAGYVKGISLADANEYAKLNPDTEFIFIDGDEKVRFLTINEVNGLTPKNLLRSDP
  soluble fraction (log2): 0.229

## HMSFGFFELKSSDTDKLFAYLNNNEHFGNIKEENGLVTAFLTSELDAQTLNKLLFDNGIIASHLVKRK
  soluble fraction (log2): -0.928

## HMSFMPDPSIHDAITYTVRSGDYLGKISTTFGVKVSDLQKWNSIKSNIIYPGQKLTVWVSSNKRESLQ
  soluble fraction (log2): -1.71

## HMSFPLKRGSKGNRVTQLQNALVKKFGASILPKYGVDGMFGKEVEAALVRAKLPTSINESTYNSFV
  soluble fraction (log2): 0.125

## HMSFVAYEEEKAIGMVRLIGDGGMSFYIKDFAVLPGHQGKGVGQMLLMELQQYLLEHKPADWAVSLE
  soluble fraction (log2): -0.359

## HMSGAKLLAPVTGTLLRYTVAEGTKVSEGQTVIMLESMKMELEINAHKAGVIHFTAAAGAQVAEGDSLAEI
  soluble fraction (log2): -0.945

## HMSGDKKLQMNLILEFAQQNESFRTKDIEELLQIRSSRARKLISDLVTEGRLEALGENRNRRYQLI
  soluble fraction (log2): -1.05

## HMSGDYRALYSSLPPERASSVVDALNVAGIPYRIQDSTGAIMVPAEQIYDARIRLAGQGLGK
  soluble fraction (log2): 0.104

## HMSGEPKNERQIEVPDVTKKSIREANNILTSEGLRLRIEGTGLAVSQKPAAGTMVEPDTIITVTFQAP
  soluble fraction (log2): 0.441

## HMSGHEVMVQRITAIIAELYQYGFVSRKKMMDEFNISERTLYRDLNRLGDRIVPDGDGIYRLAPAYA
  soluble fraction (log2): -1.55

## HMSGHIPGIKIKGVIFFDKGSSSNHIIATTENNSNLKLRVGETVQGAVLKSIHPNHVIFFHHNQLIEVGIG
  soluble fraction (log2): -4.39

## HMSGKGEFDQLLRSGEYVQAFQRANANGNVTLRRQQLLNLARHQAASGVGSGAIESLSTIQRI
  soluble fraction (log2): 0.00597

## HMSGKMTVPNVVGKTETEAKSALSAKGFTNVRTETVDSTEAAGTVVKQSLDADSVQDPKTEIVLSVSNG
  soluble fraction (log2): 0.946

## HMSGKWKIRILWYIAEYEVQRFGELRRRLGDITQSTLTEQLRELEQDGFVSRYVYQEVPSKVEYSLTE
  soluble fraction (log2): 0.197

## HMSGKWSILILHALEQGPKRFNVLHRELSGITQATLTKQLRQLEEDGIILRKAYPQIPPKVEYQLTEIG
  soluble fraction (log2): -1.82

## HMSGNPLDTYYSKWSAEIKKGSPNAVISKEGDKYYVSIPGENRMAIIYENPHLIRMVNATRNIHVE
  soluble fraction (log2): -0.092

## HMSGPSDRDLFDEALALLSGSGREPDYHEARIRLGTLVEQFPESKWAEGAKALLSMLDRVSALQV
  soluble fraction (log2): 0.247

## HMSGPVITEERNIANALISGLANMKETPTREQVERKAQQIAELFGYTGDLRNIITEAMISVDT
  soluble fraction (log2): -0.0406

## HMSGRPPTYTAEERSAVIAAALSRPADLGLPFASWTLDRLVAYLGEKGIGMKRSRMSEVLLAEGLKW
  soluble fraction (log2): -2.02

## HMSGSGYAYVDKYGYSHVVKDYDTAKNYASDGNVYNYSGSHKGGYAYDADNYRVPLDLPGSKPYG
  soluble fraction (log2): 0.191

## HMSGSIIQQAENLERQFGDTREAILGTLSDPKMSEEILETLMERYNKQHGTNWDKNTWAEEWAKANK
  soluble fraction (log2): 0.682

## HMSGSILVQVSATDLNIRKGPGTNYGTTGKYTGKGTFTIVETRSGQGSNAGWGKLKSGAGWISLDYAKR
  soluble fraction (log2): -1.54

## HMSGTESMIEGRGEARTAIDGEGKVFFQGEYWTAQSDQFIPQGAKVRIKKVEGLNLIVEEIK
  soluble fraction (log2): 0.065

## HMSGTYIVTVQANTLDIYKSMTSNDTIGKANKGDVFQILEDMGGGYAKVSYNDVEGYISIKDGDTSIDEM
  soluble fraction (log2): -0.389

## HMSGVIVPDIYNKTLAEAVASLEGEGFSTEKKEGYSDTVPKGNVMSQKPEAGTSAERGSTVTITISQGPQ
  soluble fraction (log2): 0.0579

## HMSGWIATGTATSTGNDVRVRSTPDATVNNNILLTLNKGNRFEIDGQTQNGFYHIKVNDTIGWISGLYVKE
  soluble fraction (log2): -0.976

## HMSGYFSDKKLNELFEQYLIMREKKGKPVVGYQLKILIDRLNQVAANTKEKIEVVSNAIAGDWNTFYPIKR
  soluble fraction (log2): -2.07

## HMSHDTLVYRLAQMLVKLNQGEKLDPQQLAEEFGVNLRTIQRDLNVRFAYLQLEKTDGRYHLDPTFL
  soluble fraction (log2): -1.46

## HMSHLTKKQEEVLLFIRDYYEEEGRSPSYSDIQHHFGLKSKSSVQDYIGYLKKAGFLQKSVGSRAIELV
  soluble fraction (log2): -2.52

## HMSHQIIIVAVELDPSTERIVYYLSKNGISINVLFFKVFQHGDEQFLSRVWLIDPSETQTNAALA
  soluble fraction (log2): -0.726

## HMSIESMVGRFGVVTKDVVANEMAGKVKVGREEFRATADIAVSSGTKVKVTHAEGITLTVVPE
  soluble fraction (log2): 0.611

## HMSIGKEATPDDIVPNIRVYHATFGYGNVIKTDGVSHDKKAVVNFDSVGEKTLLLKFAKLILPY
  soluble fraction (log2): -0.557

## HMSIGLEGFVGKLGISTSDLRPSGWGEFDAKKLFVVTEGEFVDRKEKIEILSVDGNRILVRKIS
  soluble fraction (log2): -1.56

## HMSILPGVYRHYKGNHYQVFYLAKHSETLEDMVVYQALYGERGIWVRPASMWNETVDDQGKQVKRFTYI
  soluble fraction (log2): -3.58

## HMSILYNAVKGTLVSSGALTADSWYKISSFGTASALPALKVGSIFKTPEGAGDAITLASGDSVYPLTLT
  soluble fraction (log2): -1.28

## HMSINQTIEGKKQGYWIIYGNMRNLQEYLSNEVIEEGQFKNSRKEGVWRKYFPGGQMKSEITYINGRP
  soluble fraction (log2): -0.266

## HMSINTIIAKNLNRLRNERNLSLGQLAELSGVSKVMLSQIEKGDSNPTVNTIWKIASGLNVPYTAILDQP
  soluble fraction (log2): -0.798

## HMSIPVLKDGTYESWGNEKVYKVGDRVMVGSNGYVAKWWNQDETPEKAIINPNDSPWRPMTESEIMEVLK
  soluble fraction (log2): -0.128

## HMSISEADAKKIALEKVPGATDSNLRIKTDYDDGIMKYEVKIVYNEMKYEFDIDAATGTILEWESESVY
  soluble fraction (log2): -1.37

## HMSISSSEAARSAVASSGGTVLGVSKASHGGYKAWAVRIQRADGSVVTGYVDRASGTVYDWVVNQAA
  soluble fraction (log2): -0.663

## HMSKEDDSLVVTFRRMLLEEVDLHELSRIDANQRRARLERVIAHLVSREGVILSASERNQLVRRVVDEAV
  soluble fraction (log2): -2

## HMSKEEAIQAMKEGKKVTHRFFSSDEWMTIENGFLLLEDGVRISLEDFFNFRSDSLWDNGYELYNPH
  soluble fraction (log2): -0.628

## HMSKFSDTLVYLRKRAGFSQQELADKMEVSRSLVGMYESGQRMPSYEMLEALADIFNVNIDFLTGH
  soluble fraction (log2): -1.28

## HMSKIRSEINKFSSDADKPILEWLFERYHWASQWRFVARFSEQRYGVLSYEINRVWEPTIEGRALYDQL
  soluble fraction (log2): -2.27

## HMSKKMLASIFDTISGIGKKRLKKIWDNYTSLNELKDDSLENIYAKTQIPINLITKIKEKLE
  soluble fraction (log2): -0.913

## HMSKKMTNEEILNFLKKVLIKHGKISGFIIDEDDNGPSSSVVASRFGGLLNAYKLINYTPER
  soluble fraction (log2): -0.906

## HMSKMTLGENLRLLRREKGLSQEQVAQTLFVARQTISKWENGQAEPGVESLKALAKLYGVSLDRLVGA
  soluble fraction (log2): -1.01

## HMSKPLEVFKLTSEPFGFSFNTALGRSYTVEATGDLGVWKAVELFQGSGGEIRFTAKPTSSGGAQFFRVFV
  soluble fraction (log2): 0.0649

## HMSKPVYILINKPKGFLASSTDKKVKKSVNDLINISNLNKIYPFDNMGRTSSGLLLLSNDLYFKKHFKDKI
  soluble fraction (log2): 0.451

## HMSKQKRIKYFLSILNIKSIKQFRKKDLDYFYQKRFIEIQKSSKDKKLVSNQLIELNAAKEYLDEIDFEN
  soluble fraction (log2): -3.78

## HMSKQQVRSILDDIPNIGETRRKALMRQFQSLEKIREASVGQLREVDGMNEKAAQSVYQFFHK
  soluble fraction (log2): -0.0426

## HMSKQVDVVIYILENTKAADNTYIGTYRKTADGAGVSLDTATKVMRKLQENNFIKKVQNGVYQISPLIMM
  soluble fraction (log2): -1.42

## HMSKRDDLLDQASEWLAKLDRDLTVVEERELKAWLGESAAHRETFIQMAKLWDKMESLSRLTDL
  soluble fraction (log2): -0.898

## HMSKSVEQRRQQIVAWVKEHGQSQVEDLAVRFATSEVTIRKDLAALSQQGLLIRQFGGAVPVPA
  soluble fraction (log2): -0.982

## HMSKTQYTFKEVGSQFQLFAPSTKHTIMISADHPKYGWLTNQDQGRVINVYDTGKMTSSQDYYGLYKEVT
  soluble fraction (log2): 0.587

## HMSKTQYTFREVGSQFELHAPSTNHKIMVDANHPKYGWLSSQEAGRVINVYESGKMTSSQDYYGLYKQS
  soluble fraction (log2): -0.092

## HMSLANTSVKEMLNDLVKNEEPSKPLSDEALVKIFKEKGVKIARRTVAKYRAELNILPSHLRRT
  soluble fraction (log2): -1.56

## HMSLAVFLQGLLEEKQLKKADVIRRTGMEPTYGYHIFDGHKKHPARSKVLLLALAMGLTVKEAQHLLYYAG
  soluble fraction (log2): -0.423

## HMSLDAAAVASKLIKRLSKSPGRRFALDDLAVDVGLPHEQGRPLVRSALELLVRTQQAVEGPPNVFRLFF
  soluble fraction (log2): -2.51

## HMSLEDMILSLSSRIRRGESLHFRELLVAIETKSGMVTIFMAVLELLKQQVMEMRYEDDDIIFT
  soluble fraction (log2): -1.04

## HMSLEEIPLEERLGPGGLDPVAVYDSLPREMRDAFDSGSVSALREFVNALPAEDAARHMKAMVDSGLWVPT
  soluble fraction (log2): 0.148

## HMSLETRRYQLPRTDAQTASGLLRSLSGLPGVREVNLSGEGVAYLKVDSKGFDEQNVIKLLAGE
  soluble fraction (log2): 0.47

## HMSLHSITIPQEFIGAVIGPGGKVIQEIQKQTGTTITITEKDNKGYVDIFGEDKGALDSALARIKEIVAIP
  soluble fraction (log2): 0.289

## HMSLIDYLNELMNEKNITVAQVAKNSGIGEYVYKIFNGERNAKRDTLVAISFGMHLNFEETQLLLRIA
  soluble fraction (log2): -1.19

## HMSLPALALRQADSLAFKQVIYHDRVVPFNTLARDFVLKLTGKPSYGGMTPEQVVGGWLLRPEVWQNEPM
  soluble fraction (log2): 0.192

## HMSLPAYIKISEVIARRINAGQILAGDRLPNERTMAVEFGVAVGTLRKALYHLQVRGLVTRKHGSGNYINK
  soluble fraction (log2): -0.221

## HMSLPKIVVPTDVTVSQLAKYLEVDAISIIKQLFGMGVVASLNQRLEDEIIQLIGNEFGKEIIFSE
  soluble fraction (log2): 0.162

## HMSLPQSKDAVITILRTLPQLDTRAPEVYKLLGPHALDIILEDPEQVAKKINHVGVATAKLWQQALLGFK
  soluble fraction (log2): -0.751

## HMSLQDYYQVLGVFYNAGDKEIKRRWKELINQYHPDLAQAKGASPEEIENYTLKMAEINNAYEQIMKSRKA
  soluble fraction (log2): -0.396

## HMSLSASELDQLRMMTKVSHMYHTRGMVQIDIARSLGLSQARVSRLLSAAEDANIVRTVVVA
  soluble fraction (log2): -0.392

## HMSLTAQVFTDRGKVLLSENKFTEAIDQFTKALAMDKVYIEALNRRIEAYQHLGLTELAAKDEALLGTL
  soluble fraction (log2): -1.16

## HMSLTPSQDANRSAILDAARDLFARYGFKKTTMEDIAMALRKGKSSLYYYFKNKEDIFQAVIDS
  soluble fraction (log2): -1.25

## HMSMDAVSLANRLLRFFQKRPGRKFTAADLAFETGMNERTGKSLVTSALEILSRTNQIEADGDGFRLKM
  soluble fraction (log2): 0.0354

## HMSMEIQEIIRQLREKNDWSQEDMAERVGLSKNGYAKIERGETNLNLERLEQIANLFDLSVIDLIEMS
  soluble fraction (log2): -0.764
